In patent US8889392B2, “Monolignol 4-O-methyltransferases and uses thereof” (Brookhaven Science Associates, LLC, priority 2010, dated 2014):

B1: T133I-E165I-F175I-F166W: IEMT tetra mutant derived from MOMT3 (protein)
chain: MGSTGNAEIQIIPTHSSDEEANLFAMQLASAAVLPMALKAAIELDVLEIMAKSVPPSGYISPAEIAAQLPTTNPEAPVMLDRVLRLLASYSVVTYTLRELPSGKVERLYGLAPVCKFLTKNEDGVSLAPFLLIATDKVLLEPWFYLKDAILEGGIPFNKAYGMNIWDYHGTDHRINKVFNKGMSSNSTITMKKILEMYNGFEGLTTIVDVGGGTGAVASMIVAKYPSINAINFDLPHVIQDAPAFSGVEHLGGDMFDGVPKGDAIFIKWICHDWSDEHCLKLLKNCYAALPDHGKVIVAEYILPPSPDPSIATKVVIHTDALMLAYNPGGKERTEKEFQALAMASGFRGFKVASCAFNTYVMEFLKTA
B2: T133I-E165I-F175I-Y161F: IEMT tetra mutant derived from MOMT3 (protein)
chain: MGSTGNAEIQIIPTHSSDEEANLFAMQLASAAVLPMALKAAIELDVLEIMAKSVPPSGYISPAEIAAQLPTTNPEAPVMLDRVLRLLASYSVVTYTLRELPSGKVERLYGLAPVCKFLTKNEDGVSLAPFLLIATDKVLLEPWFYLKDAILEGGIPFNKAFGMNIFDYHGTDHRINKVFNKGMSSNSTITMKKILEMYNGFEGLTTIVDVGGGTGAVASMIVAKYPSINAINFDLPHVIQDAPAFSGVEHLGGDMFDGVPKGDAIFIKWICHDWSDEHCLKLLKNCYAALPDHGKVIVAEYILPPSPDPSIATKVVIHTDALMLAYNPGGKERTEKEFQALAMASGFRGFKVASCAFNTYVMEFLKTA
B3: T133I-E165I-F175I-H169M: IEMT tetra mutant derived from MOMT3 (protein)
chain: MGSTGNAEIQIIPTHSSDEEANLFAMQLASAAVLPMALKAAIELDVLEIMAKSVPPSGYISPAEIAAQLPTTNPEAPVMLDRVLRLLASYSVVTYTLRELPSGKVERLYGLAPVCKFLTKNEDGVSLAPFLLIATDKVLLEPWFYLKDAILEGGIPFNKAYGMNIFDYMGTDHRINKVFNKGMSSNSTITMKKILEMYNGFEGLTTIVDVGGGTGAVASMIVAKYPSINAINFDLPHVIQDAPAFSGVEHLGGDMFDGVPKGDAIFIKWICHDWSDEHCLKLLKNCYAALPDHGKVIVAEYILPPSPDPSIATKVVIHTDALMLAYNPGGKERTEKEFQALAMASGFRGFKVASCAFNTYVMEFLKTA
B4: T133I-E165I-F175I-H169F: MOMT4 tetra mutant expressed in Arabidopsis (protein)
chain: MGSTGNAEIQIIPTHSSDEEANLFAMQLASAAVLPMALKAAIELDVLEIMAKSVPPSGYISPAEIAAQLPTTNPEAPVMLDRVLRLLASYSVVTYTLRELPSGKVERLYGLAPVCKFLTKNEDGVSLAPFLLIATDKVLLEPWFYLKDAILEGGIPFNKAYGMNIFDYFGTDHRINKVFNKGMSSNSTITMKKILEMYNGFEGLTTIVDVGGGTGAVASMIVAKYPSINAINFDLPHVIQDAPAFSGVEHLGGDMFDGVPKGDAIFIKWICHDWSDEHCLKLLKNCYAALPDHGKVIVAEYILPPSPDPSIATKVVIHTDALMLAYNPGGKERTEKEFQALAMASGFRGFKVASCAFNTYVMEFLKTA
B5: T133I-E165I-F175I-Y326F-N327V: IEMT penta mutant derived from MOMT3 (protein)
chain: MGSTGNAEIQIIPTHSSDEEANLFAMQLASAAVLPMALKAAIELDVLEIMAKSVPPSGYISPAEIAAQLPTTNPEAPVMLDRVLRLLASYSVVTYTLRELPSGKVERLYGLAPVCKFLTKNEDGVSLAPFLLIATDKVLLEPWFYLKDAILEGGIPFNKAYGMNIFDYHGTDHRINKVFNKGMSSNSTITMKKILEMYNGFEGLTTIVDVGGGTGAVASMIVAKYPSINAINFDLPHVIQDAPAFSGVEHLGGDMFDGVPKGDAIFIKWICHDWSDEHCLKLLKNCYAALPDHGKVIVAEYILPPSPDPSIATKVVIHTDALMLAFVPGGKERTEKEFQALAMASGFRGFKVASCAFNTYVMEFLKTA
B6: T133I-E165I-F175I-Y161W: IEMT tetra mutant derived from MOMT3 (protein)
chain: MGSTGNAEIQIIPTHSSDEEANLFAMQLASAAVLPMALKAAIELDVLEIMAKSVPPSGYISPAEIAAQLPTTNPEAPVMLDRVLRLLASYSVVTYTLRELPSGKVERLYGLAPVCKFLTKNEDGVSLAPFLLIATDKVLLEPWFYLKDAILEGGIPFNKAWGMNIFDYHGTDHRINKVFNKGMSSNSTITMKKILEMYNGFEGLTTIVDVGGGTGAVASMIVAKYPSINAINFDLPHVIQDAPAFSGVEHLGGDMFDGVPKGDAIFIKWICHDWSDEHCLKLLKNCYAALPDHGKVIVAEYILPPSPDPSIATKVVIHTDALMLAYNPGGKERTEKEFQALAMASGFRGFKVASCAFNTYVMEFLKTA
B7: T133I-E165I-F175I-F166W-H169F: IEMT penta mutant (MOMT5) (protein)
chain: MGSTGNAEIQIIPTHSSDEEANLFAMQLASAAVLPMALKAAIELDVLEIMAKSVPPSGYISPAEIAAQLPTTNPEAPVMLDRVLRLLASYSVVTYTLRELPSGKVERLYGLAPVCKFLTKNEDGVSLAPFLLIATDKVLLEPWFYLKDAILEGGIPFNKAYGMNIWDYFGTDHRINKVFNKGMSSNSTITMKKILEMYNGFEGLTTIVDVGGGTGAVASMIVAKYPSINAINFDLPHVIQDAPAFSGVEHLGGDMFDGVPKGDAIFIKWICHDWSDEHCLKLLKNCYAALPDHGKVIVAEYILPPSPDPSIATKVVIHTDALMLAYNPGGKERTEKEFQALAMASGFRGFKVASCAFNTYVMEFLKTA
B8: T133I-E165I-F175I-A325V: IEMT tetra mutant derived from MOMT3 (protein)
chain: MGSTGNAEIQIIPTHSSDEEANLFAMQLASAAVLPMALKAAIELDVLEIMAKSVPPSGYISPAEIAAQLPTTNPEAPVMLDRVLRLLASYSVVTYTLRELPSGKVERLYGLAPVCKFLTKNEDGVSLAPFLLIATDKVLLEPWFYLKDAILEGGIPFNKAYGMNIFDYHGTDHRINKVFNKGMSSNSTITMKKILEMYNGFEGLTTIVDVGGGTGAVASMIVAKYPSINAINFDLPHVIQDAPAFSGVEHLGGDMFDGVPKGDAIFIKWICHDWSDEHCLKLLKNCYAALPDHGKVIVAEYILPPSPDPSIATKVVIHTDALMLVYNPGGKERTEKEFQALAMASGFRGFKVASCAFNTYVMEFLKTA
B9: T133I-E165I-F175I-F166W-H169W: IEMT penta mutant derived from MOMT3 (protein)
chain: MGSTGNAEIQIIPTHSSDEEANLFAMQLASAAVLPMALKAAIELDVLEIMAKSVPPSGYISPAEIAAQLPTTNPEAPVMLDRVLRLLASYSVVTYTLRELPSGKVERLYGLAPVCKFLTKNEDGVSLAPFLLIATDKVLLEPWFYLKDAILEGGIPFNKAYGMNIWDYWGTDHRINKVFNKGMSSNSTITMKKILEMYNGFEGLTTIVDVGGGTGAVASMIVAKYPSINAINFDLPHVIQDAPAFSGVEHLGGDMFDGVPKGDAIFIKWICHDWSDEHCLKLLKNCYAALPDHGKVIVAEYILPPSPDPSIATKVVIHTDALMLAYNPGGKERTEKEFQALAMASGFRGFKVASCAFNTYVMEFLKTA
B10: T133L-E165F: IEMT double mutant variant (protein)
chain: MGSTGNAEIQIIPTHSSDEEANLFAMQLASAAVLPMALKAAIELDVLEIMAKSVPPSGYISPAEIAAQLPTTNPEAPVMLDRVLRLLASYSVVTYTLRELPSGKVERLYGLAPVCKFLTKNEDGVSLAPFLLLATDKVLLEPWFYLKDAILEGGIPFNKAYGMNFFDYHGTDHRFNKVFNKGMSSNSTITMKKILEMYNGFEGLTTIVDVGGGTGAVASMIVAKYPSINAINFDLPHVIQDAPAFSGVEHLGGDMFDGVPKGDAIFIKWICHDWSDEHCLKLLKNCYAALPDHGKVIVAEYILPPSPDPSIATKVVIHTDALMLAYNPGGKERTEKEFQALAMASGFRGFKVASCAFNTYVMEFLKTA

What was measured:
[1] = Kinetic parameters for 4-O-methylation of coniferyl alcohol; format: biochemical; conditions: for fold increase of catalytic efficiency compared with the wild-type enzyme: coniferyl alcohol; for Km / Vmax: substrate coniferyl alcohol, 4-O-methylation
Description: E. coli transformants were inoculated in 96 well plates. Protein production was induced with 0.2 mM isopropyl β-D-1-thiogalactopyranoside, and the harvested cell cultures were lysed with 60 μl of BugBuster solution per well (Novagen). Enzymatic activity was screened using the lysates directly or after purification of the recombinant protein in a 96 well purification plate.
Screening was performed in a polypropylene microplate (Bio-Rad) containing 50 μl of the reaction in each well, 500 μM p-coniferyl-alcohol substrates, and 500 μM S-adenosyl-L-methionine augmented with (isotopic assay) or without (LC-MS assay) 0.005 μCi of [methyl-^14C]S-adenosyl-L-methionine, and 20 μl of lysates or purified protein (Ni^+ column eluate). (see Bhuiya, M. W. and Liu, C. J. (2010) J. Biol. Chem. 285:277-285 and its supplemental material).
To further optimize the catalytic efficiency of MOMT on the desired para-methylation of monolignols, based on the crystal structure of MOMT3, we identified additional amino acid residues that either directly contact or are proximate to the bound coniferyl alcohol, particularly the residues near the 3-methoxy-buried pocket. They are F130, A134, V138, L139, F157, Y161, N164, F166, Y168, H169, H173, F179, M183, N186, T319, L322, M323, A325, Y326, and N327. We then carried out the next round saturation mutagenesis on the recognized amino acid sites using MOMT3 as the parental template. […] The MOMT4 enzyme predominantly reacted with coniferyl and sinapyl alcohols, with preference for the latter, while the MOMT5 favors for coniferyl alcohol.

[2] = Kinetic parameters for 4-O-methylation of sinapyl alcohol; format: biochemical; conditions: for fold increase of catalytic efficiency compared with the wild-type enzyme: sinapyl alcohol; for Km / Vmax: substrate sinapyl alcohol, 4-O-methylation

Molecule | fold increase of catalytic efficiency compared with the wild-type enzyme [1] [fold] | Km [1] [µM] | Vmax [1] [nmol/mg/min] | fold increase of catalytic efficiency compared with the wild-type enzyme [2] [fold] | Km [2] [µM] | Vmax [2] [nmol/mg/min]
B1 | ~200 | 117 ± 15 | 496 ± 8 | ~200 | 47 ± 8 | 147 ± 4
B2 |  | 197 ± 21 | 642 ± 24 |  | 206 ± 25 | 289 ± 12
B3 |  | 220 ± 27 | 629 ± 26 |  | 89 ± 10 | 370 ± 11
B4 |  | 193 ± 25 | 793 ± 32 |  | 68 ± 11 | 408 ± 17
B5 |  | 196 ± 44 | 520 ± 25 |  | 340 ± 30 | 429 ± 15
B6 |  | 196 ± 34 | 584 ± 37 |  | 219 ± 19 | 259 ± 8
B7 | ~200 | 80 ± 6 | 440 ± 10 | ~200 | 37 ± 7 | 124 ± 7
B8 |  | 236 ± 50 | 446 ± 33 |  | 97 ± 7 | 214 ± 4
B9 |  | 127 ± 8 | 392 ± 9 |  | 67 ± 10 | 160 ± 12
B10 |  | 280 ± 18 | 117 ± 3 |  | 382 ± 32 | 103 ± 4
